Data: a protein production outcome set (Wang et al. 2014)

Assay: label from the status in PepcDB records

Sequence	protein production
MAYVKERIYESMFIIAPNVPEEERENLVERVKKIIEERVKGKIDKVERMGMRKFAYEIKKFNEGDYTVIYFRCDGQNLQELENFYRVTPEIIRWQTFRRFDLEKKERKAQREKAAAEATESSEGGSED	not failed
MLDAAIKALTQILSPPMRSILWRSVGFALALIAVAAIGLQRLLSWAATSSELWAEAALGGFQTPLNILSWVLSIAAGLGIVVGAVFLMPAVTSLVAGIFVDEAAEHVERESYPHEAPGVALPIGLATWETVKTALLTILVYLVALPFLFVAGAGAIVFFVATAWLLGREYFELAAMRFRTAPEAKAMRRDNATTVFIGGLIIAAFVSIPIVNLATPLFGMAFMVHLHKRLSGSRPEVLAPDQRSMLR	failed
SNPNDLPDFPEHEYAATQQVGEGVINGDLYLTSASGAIQKGTNTKVALEPATSYMKAYYAKFGNLDAAKRDPDVQPPVLDPRRATYVREATTDQNGRFDFDHIPNGTYYISSELTWSAQSDGKTITEGGTVTKLVTVSGSQPQKVLLTR	not failed
MFRAMHLSLLGCLLGTSGCHGLPPAPPAPSAAVGNYGEVIDYLQRHIRREMERQDVPGLALALVDDQQLVWARGFGYADRQHRINASEHTAFHAGDLSKLLIASATLQLAERGQLSLDAPLQDTLREFYVRSRFHADQSEADRAITFRRLLSHQSGLPGEHLPPLFGERPNSLGQLPAKVSGVWLSNPPGTQVAHSNLGYELVGAAIERNTGKHFEQHMREHLLDPLQMTRSSFARNALPQAQRAHGYSGGGRPGSASDLPVNDLWSSPVDLSRFVRMLFANGRHKERQLLRKHSVEEMFRQQNAGNALDFDCQVGLAWFLSPCGSAPLEGGIRHYEYASATPGFSAHLILLPEQRLAAIVMSNADDSGSLTASLARQAASLMLQVKQGARRPAVQPTPARAPALEVPSPEDRRQLYGRYATRQGQIRLYERRGRLYADFGEQRVELLRDTSGWLQMRKRLLGFWPVGVDSAGQLQLDVVSYGQRRILVSRRHDQTAYLGERIEPTSLPQAWTEAVGTYRVASTGRHSYLNGLSIRIEDGFLLVRGQAGGTRSGEFILQPIDSAHAVLAGSGQGLGDTFSRDFDGLNALGYRFAQQDTKARPWLQRKESP	failed
MSLKVPGALPLLFLAACSHLPAKTPLTAEKPAEKKESEQSRVPSQDLTPSMLFDFLLAETALQRGDTEIGLRTYLKLAKNTQDPRVAQRATEAALQARQPAFALEAAKIWTELDPESIPARQMMAALLVHFDRLDEARPHLEKLLAVAGDKIDDAFMQLNSLLVRSPNKNAIFELVKQLAQPYPDLPEAHFAESQAAWFAERFDIALEEMKKALALRPEWEMAAIYEGRILSRESNARAIEFFDDYLKRYPKANDTRITYARLLLAERDYSKAREQFQKLLTENPDNPDVAIAVGLLSLELQNYDVAESNFKRALELGYRDPGMVRFYLGGISEKKQQIPQALNWYRSVTEGTQFIPAQIKYAILLSRTGKTKEGLHHLQQLPVANDQQRAQVIIAEAQLLRESGAYKKAFQLLSSSLEKLPDSPELLYDRALAAEKIGKADIMEQDLRKLIELRPDHAHAYNALGYGIAEHSSKRLPEALELIEKAIKLSPIDPYIIDSLGWVHYRMGDINQGLSYLRQAFAMNPDPEIAAHLGEVLWVQGMKDEAKEIWQTALKNHPGNEALIGVMKKFMK	failed
SKQPTSAENSVAKKEDKVPVKKQKTRTVFSSTQLCVLNDRFQRQKYLSLQQMQELSNILNLSYKQVKTWFQNQRMKSKRWQKNN	not failed
MDSAAVAFTTLDYVIFGVYLFVIVGLGLWVSQEEEGEEKDSADYFLASKALPFWAIGSSLIAANISAEQFIGMSGSGFRVGLAIASYEWMAAVTLLVIAWFFLPIYLEKEIYTMPQFLEERYDGRVRMLLAIFWLLVYVFVNLTSVLYMGGLSINVIMGFPLWASVLGLAAVATAYSLYGGLKAVAWTDVVQVVVLVGGGLLTTWVALDAYGGSEAGVVGGFTQLMGDASGRFNMILFEGELMYRNDEGALKDAYQLLPGLSVLFGGLWVANLFYWGCNQYIIQRALAAKSLKEAQRGLAFAGYLKLLLPLIVVVPGIVAFALDAPIQRGDEAYPWLLGEYVGSGFRGLAFAALVAAIISSLASMMNSASTIFTMDLYRNYTSREDVSERRLVRIGRAVALICIVVAAALAPQLADLDQVFQYIQEYTGFVSPGVLAIFVLGLFWSKATPNAALVSAVLSIPLSAAFKFWTPGVAFLNRMLIVFFISVALIVAISLLENEGEDHPKAIDVGGIERERDPIYNVAAFGILAITAALYAFFW	failed
TGNVCIEEIDVDGKFIRLKNTSEQDQPMGGWEMIRKIGDTSVSYKYTSRYVLKAGQTVTIWAANAGVTASPPTDLIWKNQNSWGTGEDVKVILKNSQGEEVAQRSTVFKTTIP	failed
